Reference: patent US20090098175A1 (AFFINERGY, published 2009)
Where no end group is shown, it is not given here. [ ]: non-standard residue; d: D form. The star is where a group is joined. Biotin = O=C1N[C@H]2[C@H](CS[C@H]2CCCCC(=O)*)N1

T1: TGF-β3 (UniProt P10600 301-412)
T1 sequence (looked up): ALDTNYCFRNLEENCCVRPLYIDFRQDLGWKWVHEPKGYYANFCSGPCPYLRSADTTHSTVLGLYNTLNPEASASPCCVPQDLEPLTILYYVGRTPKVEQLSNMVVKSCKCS

T2: BMP-5 (UniProt P22003 317-454, limits assumed)
T2 construct: also called bone morphogenetic protein 5
T2 sequence (looked up): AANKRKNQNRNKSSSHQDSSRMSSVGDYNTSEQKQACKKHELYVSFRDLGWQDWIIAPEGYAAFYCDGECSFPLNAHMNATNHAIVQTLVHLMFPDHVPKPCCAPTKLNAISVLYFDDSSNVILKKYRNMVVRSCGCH

T3: GDF-5 (UniProt P43026 382-501)
T3 construct: also called BMP-14
T3 sequence (looked up): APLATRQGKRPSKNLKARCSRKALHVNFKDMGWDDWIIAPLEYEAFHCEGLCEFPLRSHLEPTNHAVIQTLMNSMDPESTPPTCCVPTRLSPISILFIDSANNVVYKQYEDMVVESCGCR

T4: BMP-6 (UniProt P22004 382-513, limits assumed)
T4 construct: also called bone morphogenetic protein 6
T4 sequence (looked up): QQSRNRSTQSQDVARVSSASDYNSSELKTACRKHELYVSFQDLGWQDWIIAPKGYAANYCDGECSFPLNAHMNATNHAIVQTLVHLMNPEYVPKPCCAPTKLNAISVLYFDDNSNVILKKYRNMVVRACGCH

T5: GDF-7 (UniProt Q7Z4P5 322-450, limits assumed)
T5 construct: also called BMP-12; growth and differentiation factor 7
T5 sequence (looked up): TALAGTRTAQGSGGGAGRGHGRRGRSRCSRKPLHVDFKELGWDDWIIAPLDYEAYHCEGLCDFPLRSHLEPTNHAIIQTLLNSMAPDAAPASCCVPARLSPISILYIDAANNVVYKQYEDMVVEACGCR

T6: GDF-7 (UniProt Q7Z4P5 322-450)
T6 chain: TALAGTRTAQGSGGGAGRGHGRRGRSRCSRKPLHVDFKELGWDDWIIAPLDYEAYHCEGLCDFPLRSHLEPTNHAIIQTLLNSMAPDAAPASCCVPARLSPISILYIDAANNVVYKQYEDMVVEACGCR

B1: 780P (peptide)
chain 1: SWWGFWNGSAAPVWSR
chain 2: SSGGVGGWALFETLRGKEVSR
chain 3: GSSGK(Biotin)
modifications: not fully specified (some residues, C-terminus); also: chains 1-3 joined as one linear peptide (67-GSSG-2-GSSGK)
B2: SEQ ID NO 2 (peptide)
peptide: SSGGVGGWALFETLRGKEVSR
modifications: not fully specified (residues 1, 2, 20, 21); printed as ssGGVGGWALFETLRGKEVsr; also: biotinylated, site not given here

Legend:
PDGF-BB = target: T7, PDGF-BB (UniProt P01127 82-190); assay: plate assay: biotinylated peptide on streptavidin plate, growth factor titrated, antibody/AP detection
T7 construct: also called platelet-derived growth factor
Experimental: (§1) Briefly, peptides comprising an amino acid sequence of each of SEQ ID NOs: 1-3 were biotinylated to facilitate immobilization on streptavidin-coated 96-well plates. The microtiter plates were coated with streptavidin by adding 50 μl of a 10 μg/ml streptavidin solution in 0.1 M NaHCO₃, and incubating the plates for at least 3 hours. The plate wells were blocked by adding 150 μl of a 1% BSA solution in 0.1 NaHCO₃, and the plates were stored at 4° C. until needed. Before use, the streptavidin plates were washed extensively in buffer-T. Peptides were then added at 20 pmol per well in 100 μl of high-salt buffer-T (containing 500 mM NaCl), and then incubated for 1 hour at room temperature with shaking. 150 μl of 0.5 mM biotin in H₂O was added to block the remaining streptavidin sites, and plates were incubated for an additional hour. Plates were then washed with TBS-T to remove the excess biotin and peptide. Serial dilutions of growth factor (including fibrous connective tissue-inducing growth factors GDF-7, GDF-5, BMP-2, and BMP-6,; and growth factors other than fibrous connective tissue-inducing growth factors, such as BMP-5, TGF-β, TGF-β3, or PDGF-BB) in high-salt buffer-T were added (100 μl) to each well, representing a range of concentrations between 0.01 nM and 100 nM. Plates were incubated for 1 hour at room temperature with shaking prior to washing several times with TBS-T. Growth factors were then detected using 100 μl of the appropriate dilutions of primary antibodies specific for the growth factor being detected. After washing with buffer-T, 100 μl of alkaline phosphatase-conjugated secondary antibody was added to each well and incubated at room temperature for 45 minutes. Excess secondary antibody was removed by repeated washes with buffer-T, and the amount of alkaline phosphatase remaining in the well was detected using a pNPP (para-nitrophenylphos-phate) colorimetric enzymatic assay. The amount of growth factor captured by the peptides was determined by measuring the absorbance at 405 nm of the colored product of the alkaline phosphatase reaction.

TGF-β1 = TGF-β1 (UniProt P01137 279-390); assay: as above
Experimental: as §1

TGF-β3 = target: T1, TGF-β3; assay: as above
Experimental: as §1

BMP-5 = target: T2, BMP-5; assay: plate assay: biotinylated peptide on streptavidin plate, growth factor titrated 0.01-100 nM, antibody/AP detection
Experimental: as §1

GDF-5 = target: T3, GDF-5; assay: as above
Experimental: as §1

BMP-6 = target: T4, BMP-6; assay: as above
Experimental: as §1

GDF-7 [1] = target: T5, GDF-7; assay: as above
Experimental: as §1

BMP-2 = target: T8, BMP-2 (UniProt P12643 283-396); assay: as above
T8 construct: also called bone morphogenetic protein 2
Experimental: as §1

GDF-7 [2] = target: T6, GDF-7; assay: GDF-7 capture on sutures

T7 sequence (P01127 82-190 limits assumed): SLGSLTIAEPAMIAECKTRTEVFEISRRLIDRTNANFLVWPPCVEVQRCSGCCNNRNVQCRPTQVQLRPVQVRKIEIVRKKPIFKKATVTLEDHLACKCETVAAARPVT
Sequence of TGF-β1 (P01137 279-390 limits assumed): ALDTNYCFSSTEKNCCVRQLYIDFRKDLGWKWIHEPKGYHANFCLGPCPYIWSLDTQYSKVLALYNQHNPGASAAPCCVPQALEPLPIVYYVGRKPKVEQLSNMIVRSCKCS
T8 sequence (P12643 283-396 limits assumed): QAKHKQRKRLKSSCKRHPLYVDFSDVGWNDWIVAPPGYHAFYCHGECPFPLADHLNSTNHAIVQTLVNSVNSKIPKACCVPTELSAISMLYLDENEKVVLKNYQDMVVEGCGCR

Binder	binding result (PDGF-BB)	binding result (TGF-β1)	binding result (TGF-β3)	EC50 (BMP-5) [µM]	EC50 (GDF-5) [µM]	EC50 (BMP-6) [µM]	EC50 (GDF-7 [1]) [µM]	EC50 (BMP-2) [µM]	EC50 (GDF-7 [2]) [µM]
[code s][code s]VAEWALRSWEGMRVGEA[code s][code r] (also: biotinylated, site not given here) [SEQ ID NO 3]	no binding (tested: growth factor 0.01 nM to 100 nM)	no binding (tested: growth factor 0.01 nM to 100 nM)	no binding (tested: growth factor 0.01 nM to 100 nM)	< 0.1	< 0.01	< 0.01	< 0.001	< 0.01	
B1									> 0.1
B2	no binding (tested: growth factor 0.01 nM to 100 nM)	no binding (tested: growth factor 0.01 nM to 100 nM)	no binding (tested: growth factor 0.01 nM to 100 nM)	< 0.1	< 0.01	< 0.01	< 0.001	< 0.01	
[code s][code s]GPREIWDSLVGVVNPGW[code s][code r] (also: biotinylated, site not given here) [SEQ ID NO 1]	no binding (tested: growth factor 0.01 nM to 100 nM)	no binding (tested: growth factor 0.01 nM to 100 nM)	no binding (tested: growth factor 0.01 nM to 100 nM)	< 0.1	< 0.01	< 0.01	< 0.001	< 0.01	
